Strand notation (5' to 3'): a small letter for the sugar, then the base; units joined by * are phosphorothioate-linked, units joined directly phosphodiester-linked; [ ] holds rarer units or linkages, { } end groups; capitals alone tell only the bases. m = 2'-O-methyl; r = 2'-OH (RNA)

The values below come from patent US20230035659A1, “Compositions and Methods for TTR Gene Editing and Treating ATTR Amyloidosis Comprising a Corticosteroid or Use Thereof” (Intellia Therapeutics, Inc., priority 2019, published 2023).

For the data set, the system named is TTR. Kind of data set: TTR editing in primary cyno hepatocytes treated with LNP formulated Spy Cas9 mRNA (SEQ ID NO: 2) and sgRNAs, 12.5 ng mRNA. Particulars: LNP formulated Spy Cas9 mRNA (SEQ ID NO: 2) and cyno matched sgRNA, lysed 72 hours post treatment. It counts as cell-based, cynomolgus monkey. As to the method: Primary liver hepatocytes. Primary human liver hepatocytes (PHH) and primary cynomolgus liver hepatocytes (PCH) (Gibco) were cultured per the manufacturer's protocol (Invitrogen, protocol 11.28.2012). In brief, the cells were thawed and resuspended in hepatocyte thawing medium with supplements (Gibco, Cat. CM7000) followed by centrifugation at 100 g for 10 minutes for human and 80 g for 4 minutes for cyno. The supernatant was discarded and the pelleted cells resuspended in hepatocyte plating medium plus supplement pack (Invitrogen, Cat. A1217601 and CM3000). Cells were counted and plated on Bio-coat collagen I coated 96-well plates (ThermoFisher, Cat. 877272) at a density of 33,000 cells/well for human or 60,000 cells/well for cyno (or 65,000 cells/well when assaying effects on TTR protein, described further below). Plated cells were allowed to settle and adhere for 6 or 24 hours in a tissue culture incubator at 37° C. and 5% CO2 atmosphere. After incubation cells were checked for monolayer formation and media was replaced with hepatocyte culture medium with serum-free supplement pack (Invitrogen, Cat. A1217601 and CM4000).
In general, the lipid nanoparticle components were dissolved in 100% ethanol with the lipid component of various molar ratios. The RNA cargos were dissolved in 25 mM citrate, 100 mM NaCl, pH 5.0, resulting in a concentration of RNA cargo of approximately 0.45 mg/mL. The LNPs were formulated with a lipid amine to RNA phosphate (N:P) molar ratio of about 4.5 or about 6, with the ratio of mRNA to gRNA at 1:1 by weight.
The LNPs were formed by microfluidic mixing of the lipid and RNA solutions using a Precision Nanosystems NanoAssemblr™ Benchtop Instrument, according to the manufacturer's protocol. A 2:1 ratio of aqueous to organic solvent was maintained during mixing using differential flow rates. […]
Additional PCR was performed per the manufacturer's protocols (Illumina) to add chemistry for sequencing. […] The reads were aligned to a reference genome (e.g., the human reference genome (hg38), the cynomologus reference genome (mf5), the rat reference genome (rn6), or the mouse reference genome (mm10)) after eliminating those having low quality scores. The resulting files containing the reads were mapped to the reference genome (BAM files), where reads that overlapped the target region of interest were selected and the number of wild type reads versus the number of reads which contain an insertion, substitution, or deletion was calculated.
The editing percentage (e.g., the “editing efficiency” or “percent editing” or “indel frequency”) is defined as the total number of sequence reads with insertions/deletions (“indels”) or substitutions over the total number of sequence reads, including wild type. […]

B1: G000502: TTR Cyno specific sgRNA modified sequence, SEQ ID NO: 114; guide sequence of CR000689; cross homologous between mouse and cyno (nucleic acid)
guide: mA*mC*mA*rCrArArArUrArCrCrArGrUrCrCrArGrCrGrGrUrUrUrUrArGrAmGmCmUmAmGmAmAmAmUmAmGmCrArArGrUrUrArArArArUrArArGrGrCrUrArGrUrCrCrGrUrUrArUrCrAmAmCmUmUmGmAmAmAmAmAmGmUmGmGmCmAmCmCmGmAmGmUmCmGmGmUmGmCmU*mU*mU*mU
As for B1, the “12.5 ng mRNA, 3.9 nM sgRNA, Avg % Edit” value worked out at 80.70%.
